Measurements: article PMC12810918

B1: ADIB (recombinant ADI, assemblage B, isolate GS) (Giardia duodenalis ATCC 50581) (protein)
chain: MTDFTKDKEKLAQATQGGETERAEIVVVHLPQGTSFLTSLNPEGNLLEESMCPDELKRDHEGFQAILKEKGCRVYMPYDVLSEASPAEREVLMDQAMASLKYEFHPSGARITPKMKYCVSDEYKRKVLSALSNRNLVDVILSEPVIHLIPGVRNTALVTKSVEIHDSNNMVFMRDQQITTRRGVVMGQFQAPQRRREQVFALIFWKRLGVRVVGDCREGGPHCMLEGGDFIPASPGLTMMGVGLRSTYVGARYLMSKDLLGTRRFAVVKDCFDQHQDRMHLDCTCSIIHDKLVVLDEYICSGMGLRYVDEWIDIGAEAAKKAKSSAVICGTYALVKANVEFQQWLDENGYTIIRIPHEYQLAYGCNNLNLGNNCVLSVHQPTIDFIKASPAYISYCKSHNLSNGLDLVYVPFRGITRMYGSLHCASQVIYRTPATPATVKACEQEGDGLAAIYEKNGEPVDAAGKNFDCVLYIPSTVDDLVDSLGISLGDDVAPSREIIADVHKLYQKLISEGRVPYITWRMPSMPVVSLKGAARAGSLKAILDKIPQLPSFTPKVVDGAPAAYTRYLGLEQADICIDIS

Assays:
N=C(N)NCCC[C@H](N)C(=O)O = experiment: purified protein; conditions: 40 mM Hepes pH 7.0, 0-20 mM arginine
[1] = substrate: N=C(N)NCCC[C@H](N)C(=O)O; experiment: colorimetric determination of citrulline formation; assay type: biochemical, Giardia duodenalis; conditions: 40 mM Hepes pH 7.0, 0-20 mM arginine
Excerpt: colorimetric determination of citrulline formation on ADIB (recombinant ADI, assemblage B, isolate GS) | recombinantly expressed ADIAI, ADIAII and ADIB in bacteria and determined the Km values

Molecule	Km (N=C(N)NCCC[C@H](N)C(=O)O)	Km [1]	kcat [1]
ADIE (recombinant ADI, assemblage E, isolate P15) (Giardia lamblia P15)	340 ± 30 µM	–	–
B1	–	360 ± 20 µM	1.99 ± 0.16 s⁻¹
